Results taken from publication PMC4383033, “Architecture of the ring formed by the tubulin homologue FtsZ in bacterial cell division” (eLife, 2014).

B1: Thermotoga maritima FtsA (natural protein, UniProt Q9WZU0 1-419, looked up)
chain: MIDLSKTVFYTSIDIGSRYIKGLVLGKRDQEWEALAFSSVKSRGLDEGEIKDAIAFKESVNTLLKELEEQLQKSLRSDFVISFSSVSFEREDTVIERDFGEEKRSITLDILSEMQSEALEKLKENGKTPLHIFSKRYLLDDERIVFNPLDMKASKIAIEYTSIVVPLKVYEMFYNFLQDTVKSPFQLKSSLVSTAEGVLTTPEKDRGVVVVNLGYNFTGLIAYKNGVPIKISYVPVGMKHVIKDVSAVLDTSFEESERLIITHGNAVYNDLKEEEIQYRGLDGNTIKTTTAKKLSVIIHARLREIMSKSKKFFREVEAKIVEEGEIGIPGGVVLTGGGAKIPRINELATEVFKSPVRTGCYANSDRPSIINADEVANDPSFAAAFGNVFAVSENPYEETPVKSENPLKKIFRLFKELME
notes: FtsA of Thermotoga maritima; 'completely unmodified'; the C-terminal tail (amphipathic helix) was verified by ESMS to be intact after purification; It says 'completely unmodified' with intact C-terminal tails; also called TmFtsA; source: purified as described previously (Szwedziak et al., 2012)
B2: Thermotoga maritima FtsZ (natural protein, UniProt O08398 1-351, looked up)
chain: MGFDLDVEKKKENRNIPQANNLKIKVIGVGGAGNNAINRMIEIGIHGVEFVAVNTDLQVLEASNADVKIQIGENITRGLGAGGRPEIGEQAALESEEKIREVLQDTHMVFITAGFGGGTGTGASPVIAKIAKEMGILTVAIVTTPFYFEGPERLKKAIEGLKKLRKHVDTLIKISNNKLMEELPRDVKIKDAFLKADETLHQGVKGISELITKRGYINLDFADIESVMKDAGAAILGIGVGKGEHRAREAAKKAMESKLIEHPVENASSIVFNITAPSNIRMEEVHEAAMIIRQNSSEDADVKFGLIFDDEVPDDEIRVIFIATRFPDEDKILFPEGDIPAIYRYGLEGLL
notes: FtsZ of Thermotoga maritima; 'completely unmodified'; the C-terminal tail was verified by ESMS to be intact after purification; It says 'completely unmodified' with intact C-terminal tails; also called TmFtsZ; source: purified as described previously (Szwedziak et al., 2012)

Key:
[1] = biological target: the molecule itself; assay: electron cryomicroscopy and cryotomography of liposomes; TmFtsZ (30 uM) and TmFtsA (10 uM) encapsulated in liposomes of E. coli total lipid extract by dilution of CHAPS; 0.5 mM MgGTP, MgGMPCPP or no nucleotide; TEN100 7.5 buffer; room temperature
[2] = biological target: B1; assay: transmission electron cryomicroscopy of liposomes; proteins on the outside of liposomes of E. coli total lipid extract; TmFtsA 20 uM, TmFtsZ 60 uM or both; 50 mM Tris/HCl, 100 mM NaCl, 1 mM EDTA, 1 mM NaN3, pH 7.5; room temperature; settings: both partners purified

binding result [2]	Binder	binding result [1]
–	B1	binds
binds	B2	binds
